The nature of the series: soluble on expression in E. coli; label from the status in PepcDB or PDB records.
As to “MKKGTPLPHSDELDAGNVLAVENLNIAFMQDQQKIAAVRNLSFSLQRGETLAIVGESGSGKSVTALALMRLLEQAGGLVQCDKMLLQRRSREVIELSEQNAAQMRHVRGADMAMIFQEPMTSLNPVFTVGEQIAESIRLHQNASREEAMVEAKRMLDQVRIPEAQTILSRYPHQLSGGMRQRVMIAMALSCRPAVLIADEPTTALDVTIQAQILQLIKVLQKEMSMGVIFITHDMGVVAEIADRVLVMYQGEAVETGTVEQIFHAPQHPYTRALLAAVPQLGAMKGLDYPRRFPLISLEHPAKQAPPIEQKTVVDGEPVLRVRNLVTRFPLRSGLLNRVTREVHAVEKVSFDLWPGETLSLVGESGSGKSTTGRALLRLVESQGGEIIFNGQRIDTLSPGKLQALRRDIQFIFQDPYASLDPRQTIGDSIIEPLRVHGLLPGKDAAARVAWLLERVGLLPEHAWRYPHEFSGGQRQRICIARALALNPKVIIADEAVSALDVSIRGQIINLLLDLQRDFGIAYLFISHDMAVVERISHRVAVMYLGQIVEIGPRRAVFENPQHPYTRKLLAAVPVAEPSRQRPQRVLLSDDLPSNIHLRGEEVAAVSLQCVGPGHYVAQPQSEYAFMRR”, the “soluble on expression in E. coli” value is “not soluble”. For the sequence “MKKHGVLNSEIAAVLASLGHTDTVVIADCGLPIPDGVKRIDLAVEIGKPSFLEVLQVVADDMAIEKVTLAEEVIINNAEVNKEIERKLIEPAFEYVSHEQFKEHTKKAKAIIRTGEATPYANVILHAGVIF”, the “soluble on expression in E. coli” value was “not soluble”. Consider “MKKIAIFAGDGIGPEIVAAARQVLDAVDQAAHLGLRCTEGLVGGAALDASDDPLPAASLQLAMAADAVILGAVGGPRWDAYPPAKRPEQGLLRLRKGLDLYANLRPAQIFPQLLDASPLRPELVRDVDILVVRELTGDIYFGQPRGLEVIDGKRRGFNTMVYDEDEIRRIAHVAFRAAQGRRKQLCSVDKANVLETTRLWREVVTEVARDYPDVRLSHMYVDNAAMQLIRAPAQFDVLLTGNMFGDILSDEASQLTGSIGMLPSASLGEGRAMYEPIHGSAPDIAGQDKANPLATILSVAMMLRHSLNAEPWAQRVEAAVQRVLDQGLRTADIAAPGTPVIGTKAMGAAVVNALNLKD”, for which the “soluble on expression in E. coli” value is “soluble”. Under “MKKIIETQRAPGAIGPYVQGVDLGSMVFTSGQIPVCPQTGEIPADVQDQARLSLENVKAIVVAAGLSVGDIIKMTVFITDLNDFATINEVYKQFFDEHQATYPTRSCVQVARLPKDVKLEIEAIAVRSA” stands “soluble”. The same measure for “MKKILLVFLVGTMAFAAYGAEGDVQVSKSVEDSITKDYDQDGVYSSYEKALRRAQESVYVTLPEKRGYWYTMLDRIKAEEEELMPDEQARMRRKR”: “not soluble”; for “MKKITLLSGILFLIGYSDAEVFESQNVRVKRNDFTNNYGYGPFGIGPTNGGFDSYGFYRDKFYNSGLPPLYSFASYRNYYHEISFHKNKYGQPAPTDFETLQQERYGPYYDGVWGYADHSKNWFGKR”: “not soluble”; for “MKKKSVWIKADEGGWEEQKERITTGLESGADCVLVNPGDVEKVRELGNITVAAFARDNKSGADIVVVGKRGEGDGTKPLPQEIPGSFDVNAATLLTDKGVTVGGYVVIKDRSYERFAAEMGKICDYLLVTGTDWKVIPLENLIADLQREKVKIIFGVKSAEEARLAFQTLETGADGVLLDSGNPQEIKDTIKAARELESESTELESAVVTRVEPLGMGDRVCVDTCNLMQRGEGMLIGSQASGMFLVNSESDDSPYVAARPFRVNAGAVHSYIKIGDKTRYLSELQAGDSVTIIDSRGKQREGIVGRIKIESRPLMLIEAKAGDRTLTAILQNAETIKLVGKGGTPISVAKLKKGDEVLVRLEEGARHFGKKIEETIIEKLEHHHHHH”: “soluble”. For the sequence “MKKLINKKETFLTDMLEGLLIAHPELDLIANTVIVKKAKKEHGVAIVSGGGSGHEPAHAGFVAEGMLDAAVCGEVFTSPTPDKILEAIKAVDTGDGVLLVVKNYAGDVMNFEMAQELAEMEGINVQTVIVRDDIAVTNEVQRRGVAGTVFVHKLAGYLAEKGYSLTEIKSRVEALLPEIKSIGMAIEPPLVPTTGKYGFDIEDDKMEIGIGIHGEKGIHREEVKDIDHIVGTLLDELYKEVTANDVILMVNGMGGTPLSELNIVTKYIQQNLAARTVNVAKWFVGDYMTSLDMQGFSITIVPNKPEYLEAFLAPTTSQYFKLEHHHHHH”, the “soluble on expression in E. coli” value is on record as “soluble”. The same measure for “MKKLLFAIDDTEACERAAQYILDMFGKDADCTLTLIHVKPEFMLYGEAVLAAYDEIEMKEEEKAKLLTQKFSTFFTEKGINPFVVIKEGEPVEMVLEEAKDYNLLIIGSSENSFLNKIFASHQDDFIQKAPIPVLIVK”: “soluble”; for “MKKNTSKTTMRINKQDALCTPHSHDPRDLQNMLDGGEYAPFVSPPMLESNFIQVNRRGESIYLHNRANWVTVGICFSSSTHKIPNVMLLAHLTPGAQKDTETLFKSLLTSPPAEKLVLTRFLPLQFVTLSVHDAENMSLKVKLVSGRAYYLQLCTSAYKQDTLFSQWVALISLLNQEKAKVSKVSEVSSLSGITNSTDITGSMDVTDVTTFTAILTPYMYAGTGPEHVRDSIDFPEFTDITDITDVTDLPENEVPEVPDVRIVTEVIEVREATEVTDSSDITNCSGVTVVFENNDLIRAKQEEKEKLKNILKPGCLQDTKSKRYFQTTLTPVESEANTSKEMKDKTSEEKMPDFQSTALKAEESRSLRTESNTSVLSPHIKSPSNFLKLVPHLSAPFSRE”: “soluble”; for “MKKRILAVAVTSMLLSASVFAQETVVPSRVGDLKFESDFPTQETMKNMLNEMDFQRATQAYLWGIPASSIMEWLNVSRNDFKFEEGQMGFFNTLKQKQGIITANFTTPYVIGTWNLEKTGPLIINLPEAKMAGMMLDVHQRVLSDLSLLGPDKGKGGKYLIVPPGEKYKDLNPKGYYVIRPKTNVVYGGIRILEPDVDRVVKQVVPNITTQPYADGKLGRKIPVAQVPEIDWTHIPKDGLEYWKTIHQIIQENPVEERDRFVMAQLKFLGIEKGKPFNPTEEQKKILLEASKVGRAMAQSNDYTKRFTQPYWKGTNWKDAISVSLDQRSENYDELDERAAWFYEAITVSRGMKSTIPGFGQRYLVTYQDSDGNWLSGEHTYKLHVPANVPASNFWSTTVYDENNRLMIINDAGSPDISSRKNLKVNSDGSIDVYYGPKPVKGYENNWVQTNPGEGWFTYFRFYGPTEKMFDKSWTMGDIELVKLEHHHHHH”: “soluble”.

With “MKKRYLVLTALLALSLAACSQEKTKNEDGETKTEQTAKADGTVGSKSQGAAQKKAEVVNKGDYYSIQGKYDEIIVANKHYPLSKDYNPGENPTAKAELVKLIKAMQEAGFPISDHYSGFRSYETQTKLYQDYVNQDGKAAADRYSARPGYSEHQTGLAFDVIGTDGDLVTEEKAAQWLLDHAADYGFVVRYLKGKEKETGYMAEEWHLRYVGKEAKEIAASGLSLEEYYGFEGGDYVD”, the “soluble on expression in E. coli” value is “not soluble”. Under “MKKTHINVIGAGLAGSEAAYQIAKRGIPVKLYEMRGVKQTPQHKTDKFAELVCSNSLRGAAITNAVGLLKEEMRRLDSVIIKAAEVTQVPAGGALAVDREGFSDFVTREVSNHPLVEVIREEITDLPEDEITIIATGPLTSDKLAEKIHEFNGADGFYFYDAAAPIIDANSINFDKVYKKSRYDKGEADYINCPMTKEEFQAFQEALISAEEAPLNSFEDLKVFEGCMPIEEMAKRGYKTMLFGPMKPVGLEYPEDYKGPRDGDFKTPYAVVQLRQDNASASLYNIVGFQTHLKWGEQKRVFQMIPGLENAEFVRYGVMHRNSYMDSPNLLKQTFQSRKQENLFFAGQMTGVEGYVESAASGLVAGINAVKLFNDEEVVIFPKTTAIGSLPYYITHTDSKHFQPMNVTFGIVEELEGPRIRDKKERYTKVAERALNSLTDIISKDNLLEHHHHHH” stands “soluble”; under “MKKVEVLKRLENAGVIAVLRADSKEEALKISHAVVEGGMIGLELTFTVPQADEVIRSLVETYHDEKDIVIGAGTVLDAVTARLAIMAGAEFIVSPSFNRETAEICNLYQVPYLPGCMTITEMQTALKSGVDIVKLFPGSTYGPSIISAFQAPLPYLNIMPTGGVSLDNMASWFEAGVTAVGVGGNLLAHAKTGEFGKVTALAKQYMAKFREIKEN”, “not soluble”; under “MKKWVCTVCGYIYDEDAGDPDNGISPGTKFEELPDDWVCPLCGVGKDQFEKLED”, “soluble”. With “MKKYLLSFLLSMILTLTSHAESNPDPTTYPDVELSPPPRISLRSLLTAQPIKNDHYDSHNYLSTHWELIDYKGKEYEKLRDGGTLVQFKVVGAAKCFAFPGEGTTDCKDIDHTVFNLIPTNTGAFLIKDALLGFCMTSHDFDDLRLEPCGISVSGRTFSLAYQWGILPPFGPSKILRPPVGRNQGS”, the “soluble on expression in E. coli” value is “soluble”. Under “MKLAKLIPKRFFIRSKDRSTVSKSPTAFSFGSASSSSGQDCKNSGGDGGGGSVTPTSILPEVPSPYSYVEILQAFKLIDRDNDGAVSRHDLESLLSRLGPDPLTEEEINVMLKEVDCDGDGTIRLEELASRVVSLDPARDSTELKETFEFFDADRDGLISADELLRVFSTIGDERCTLDDCKRMIADVDEDGDGFVCFTEFSRMMDLQR” stands “soluble”. The same measure for “MKLHEAKLLLNDPTFSIDSITYQELEMDSDYVDVHEDISYSKDNVDLHSHTFFEILFCQSGSLQYMVGNTRYQLVKNSIVCIPPGVSHCPLYLEQLSEPYRRTVMWISNKIYHQYMNLLNNDPIEKSSCLLPQNVFLLSGNILYQVEELYEKMLNIPPDFSGAELYKIGLSAQIVTLFHQFLNSHEINPLKPEKTILLDEIIHFIENHLSEELSAKRIAAHFLVSESSINQLFSKQISLSLYRYITQRRLIEAKNLISSQTPLKKLPELCGFSDYSVFYKAFTKQYGISPKEYKNRIFKMQQ”: “soluble”. In the case of “MKLIFQMGKQPVLEKTILLFILSIVESLKLKVVSLDEAHRYIFNLEVLELLMDRNIDDQVLELIHFGMGLEDIYHVLPEELEHTIEELKWLCIQVLSEYSMHEESEQLIEDIR”, the “soluble on expression in E. coli” value was “not soluble”. Regarding “MKLKNTLLASALLSAMAFSVNAATELTPEQAAAVKPFDRVVVTGRFNAIGEAVKAVSRRADKEGAASFYVVDTSDFGNSGNWRVVADLYKADAEKAEETSNRVINGVVELPKDQAVLIEPFDTVTVQGFYRSQPEVNDAITKAAKAKGAYSFYIVRQIDANQGGNQRITAFIYKKDAKKRIVQSPDVIPADSEAGRAALAAGGEAAKKVEIPGVATTASPSSEVGRFFETQSSKGGRYTVTLPDGTKVEELNKATAAMMVPFDSIKFSGNYGNMTEVSYQVAKRAAKKGAKYYHITRQWQERGNNLTVSADLYKLEHHHHHH”, the “soluble on expression in E. coli” value is recorded as “not soluble”. Under “MKLKTNIRHLHGIIRVPGDKSISHRSIIFGSLAEGETKVYDILRGEDVLSTMQVFRDLGVEIEDKDGVITVQGVGMAGLKAPQNALNMGNSGTSIRLISGVLAGADFEVEMFGDDSLSKRPMDRVTLPLKKMGVSISGQTERDLPPLRLKGTKNLRPIHYELPIASAQVKSALMFAALQAKGESVIIEKEYTRNHTEDMLQQFGGHLSVDGKKITVQGPQKLTGQKVVVPGDISSAAFWLVAGLIAPNSRLVLQNVGINETRTGIIDVIRAMGGKLEITEIDPVAKSATLIVESSDLKGTEICGALIPRLIDELPIIALLATQAQGVTVIKDAEELKVKETDRIQVVADALNSMGADITPTADGMIIKGKSALHGARVNTFGDHRIGMMTAIAALLVADGEVELDRAEAINTSYPSFFDDLESLIHG” stands “soluble”; under “MKLLLLLCISCIPLAYSHDGEPFDYLMFTTIYPTAVCRADDDSVPESCEIPSGTPQWSIHGLWPNFENGSYPQNCRGTPRHFDENLIKSIEDRLVVVWPNLYPKKTIQSFWKHEYDKHGTCAQSEKLFESELAYFTEVMKVFDSIDVAGGLKSVGPSEKPITSSDLKNALSGVTSGKTFQFHCLRDKKTKQFLLGDIRLCLNKDLTIRDCPTDGKHPNRVSRFERSIGRNRRGPPLPSFQPCPAEFIYLPEMSSISKSSDSTSPSIFGRIWSAIKNIGN”, “not soluble”.

The values above are taken from the DeepSol protein solubility set.
